Assay results reported in PMC7307139.

Target: T1, vesicular stomatitis virus (VSV) phosphoprotein (P), wild type (vesicular stomatitis virus (VSV)), P03520
T1 chain: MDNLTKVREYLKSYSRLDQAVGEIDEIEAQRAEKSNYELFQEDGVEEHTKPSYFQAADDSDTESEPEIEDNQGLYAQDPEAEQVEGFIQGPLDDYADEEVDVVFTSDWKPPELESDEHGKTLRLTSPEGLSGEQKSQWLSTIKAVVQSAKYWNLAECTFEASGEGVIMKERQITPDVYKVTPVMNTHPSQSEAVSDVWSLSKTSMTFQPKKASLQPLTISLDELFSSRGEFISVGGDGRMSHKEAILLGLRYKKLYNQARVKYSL
Assay: SEC-MALS
Conditions: remark: other sources report otherwise

B1: vesicular stomatitis virus (VSV) phosphoprotein (P), wild type, P03520 1-265 (natural protein)
chain: T1 chain
  stoichiometry N: 2
